Experimental data reported in patent US20250320284A1 (AC IMMUNE, published 2025).

T1: CARD domain of human ASC (human, UniProt Q9ULZ3 107-195)
T1 construct: biotinylated in BLI; also called hCARD; human CARD
T1 sequence: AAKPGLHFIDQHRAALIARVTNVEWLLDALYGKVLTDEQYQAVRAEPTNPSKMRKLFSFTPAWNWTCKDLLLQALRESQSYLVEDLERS

T2: mouse ASC (mouse, UniProt Q9EPB4 1-193)
T2 sequence: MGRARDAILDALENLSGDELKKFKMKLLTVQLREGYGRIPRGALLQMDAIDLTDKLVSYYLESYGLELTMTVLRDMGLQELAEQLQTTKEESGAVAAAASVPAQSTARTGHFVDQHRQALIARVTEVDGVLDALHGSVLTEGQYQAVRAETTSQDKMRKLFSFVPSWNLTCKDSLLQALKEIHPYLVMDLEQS


How the values were obtained:
[1] = target: T1, CARD domain of human ASC; assay: sandwich ELISA on MBP-tagged protein captured by anti-MBP antibody, signal as % of hPYD-WT
[2] = target: T3, PYD domain of human ASC (human, UniProt Q9ULZ3 1-91, limits assumed); assay: BLI binning on PYD, competitor 401H9B7-AB1
T3 construct: biotinylated in BLI; His/MBP-tagged in the alanine ELISA; also called hPYD; human PYD

[3] = target: T3, PYD domain of human ASC; assay: BLI binning on PYD, competitor 416E6G4-AB1
[4] = target: T2, mouse ASC; assay: cell-based or functional assay
[5] = target: T2, mouse ASC; assay: cell-based or functional assay; remark: listed apart in the source
[6] = target: T4, human ASC (apoptosis associated speck-like protein containing a caspase-recruitment domain) (human, UniProt Q9ULZ3 1-195); assay: cell-based or functional assay
[7] = target: T2, mouse ASC; assay: ELISA, coated mASC
[8] = target: T3, PYD domain of human ASC; assay: BLI binning on PYD, competitor 22D3A6-AB1
[9] = target: T4, human ASC (apoptosis associated …); assay: cell-based or functional assay; remark: listed apart in the source
[10] = target: T3, PYD domain of human ASC; assay: BLI binning on PYD, competitor 26A1G2-AB1
[11] = target: T3, PYD domain of human ASC; assay: ELISA, coated hPYD;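 further: monoclonal antibody binding to plate-coated human ASC PYD measured by ELISA, with a phosphatase substrate absorbance read-out and EC50 from a variable slope curve fit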
[12] = target: T3, PYD domain of human ASC; assay: BLI binning on PYD, competitor 2617C3A8-AB1
[13] = target: T3, PYD domain of human ASC; assay: BLI binning on PYD, competitor 31F10C5-AB1
[14] = target: T3, PYD domain of human ASC; assay: BLI binning on PYD, competitor 2626B9D3-AB1
[15] = target: T3, PYD domain of human ASC; assay: BLI binning on PYD, competitor 23E5F7-AB2
[16] = target: T3, PYD domain of human ASC; assay: BLI binning on PYD, competitor 2610H7D3-AB1
[17] = target: T4, human ASC (apoptosis associated …); assay: ELISA, coated hASC;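 further: antibody binding to plate-coated recombinant human ASC, read as phosphatase substrate absorbance, EC50 from four-parameter variable-slope fit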
[18] = target: T2, mouse ASC; assay: SPR affinity mode, mAb captured;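 further: Single-cycle SPR kinetics with mAbs captured on goat anti-mouse antibody, double-referenced against blank flow cell and buffer cycle, fitted by a 1:1 kinetic model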
[19] = target: T4, human ASC (apoptosis associated …); assay: SPR affinity mode, mAb captured;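 further: Single-cycle SPR kinetics with mAbs captured on goat anti-mouse antibody, double-referenced against blank flow cell and buffer cycle, fitted by a 1:1 kinetic model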
[20] = target: T1, CARD domain of human ASC; assay: ELISA, coated hCARD
[21] = target: T4, human ASC (apoptosis associated …); assay: SPR affinity mode, steady-state fit, apparent KD
[22] = target: T2, mouse ASC; assay: SPR avidity mode, ASC immobilized;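 further: Single-cycle SPR kinetics on Biacore T200, antibodies injected at 1.2–100 nM (3-fold steps), 300 s association, 900 s dissociation, double-referenced, 1:1 kinetic model fit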
[23] = target: T4, human ASC (apoptosis associated …); assay: SPR avidity mode, ASC immobilized;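 further: Single-cycle SPR kinetics on Biacore T200, antibodies injected at 1.2–100 nM (3-fold steps), 300 s association, 900 s dissociation, double-referenced, 1:1 kinetic model fit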
[24] = target: T1, CARD domain of human ASC; assay: sandwich ELISA on MBP-tagged protein captured by anti-MBP antibody, signal as % of hPYD-WT; remark: listed apart in the source
[25] = target: T2, mouse ASC; assay: ELISA, coated mASC; ELISA on mASC protein
[26] = target: T2, mouse ASC; assay: SPR avidity mode, ASC immobilized; SPR avidity mode, mASC covalently immobilized, mAb as analyte
[27] = target: T2, mouse ASC; assay: SPR affinity mode, mAb captured; SPR affinity mode, mAb captured by Fc, mASC in solution;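 on KD: Single-cycle SPR kinetics with mAbs captured on goat anti-mouse antibody, double-referenced against blank flow cell and buffer cycle, fitted by a 1:1 kinetic model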;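 on koff: Single-cycle SPR kinetics with mAbs captured on goat anti-mouse antibody, double-referenced against blank flow cell and buffer cycle, fitted by a 1:1 kinetic model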
[28] = target: T1, CARD domain of human ASC; assay: sandwich ELISA on MBP-tagged protein captured by anti-MBP antibody, signal as % of hPYD-WT; remark: listed apart in the source

T3 sequence (Q9ULZ3 1-91 limits assumed): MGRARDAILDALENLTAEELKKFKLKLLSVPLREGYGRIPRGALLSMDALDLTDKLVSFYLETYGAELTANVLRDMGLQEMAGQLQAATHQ

Binder | normalized binding response [2] | normalized binding response [3] | % IL-1β inhibition, mouse primary microglia, 420 nM mAb [4] | Mouse ASC polymerization assay, IC50 [5] | Human ASC polymerization assay, IC50 [6] | EC50 [7] | normalized binding response [8] | IL-1β release, human monocytic cell line, IC50 [9] | normalized binding response [10] | EC50 [11] | normalized binding response [12] | normalized binding response [13] | normalized binding response [14] | normalized binding response [15] | EC50 [17] | Kd [18] | koff [18] | Kd [19] | koff [19] | kon [19] | also measured
ACI-8016-23E5F7-AB1 (antibody, V domains shown, also called 936.23E5F7) VH: QVQLQQSEAELARPGASVKLSCKASGYTFTSYGIFWVKQRTGQGLEWIGEIYPRSGNTYYNENFRDKATLTADKSSSTAYMELRSLTSEDSAVYFCARQRDDYWGQGTTLTVSS VL: QIVLTQSPAIMSASPGEKVTITCSVSSSVSYMYWFQQKPGTSPKVWIYSTSNLASGVPARFSGRGSGTSYSLTISRMEAEDAATYYCQQRSSYPFTFGSGTKLEIK | – | – | 69.4% | 21 nM | 5.8 nM | 0.15 nM | – | – | – | 0.13 nM | – | – | – | – | 0.12 nM | 10.3 nM | 0.00264 s⁻¹ | – | – | – | binding result [20]: no binding; Kd [21]: 27.1 nM; kon [18]: 261000 M⁻¹ s⁻¹
ACI-8019-2314F6H11-AB1 (antibody, V domains shown) VH: QVQVQQSGADLARPGASVKLSCKASGYTFTNYGINWVKQRTGQGLEWIGEIYPKNIDIYYNEKFKGKATLTADKSSSTAYMELRSLTSEDSAVYFCGRSSFGFSGNYAMDYWGQGTSVTVSS VL: DVVMTQTPLSLPVSLGDQASISCRSSQNLIHSNGITYLHWYLQKPGQSPKLLIYKVSNRFSGVPHRFSGSGSGTDFTLKISRVEAEDLGVYFCSQSTHVPWTFGGGTKLEIK | – | – | – | – | – | 0.2 nM | – | – | – | – | – | – | – | – | 0.1 nM | – | – | – | – | – | Kd [22]: 16.1 nM; Kd [23]: 0.91 nM; koff [23]: 8e-05 s⁻¹; kon [23]: 88000 M⁻¹ s⁻¹
ACI-8016-416E6G4-AB1 (antibody, V domains shown) VH: QVQLKQSGPGLVQPSQSLSITCTVSGISLSSYGLHWVRQSPGKGLEWLGVIWSGGNTDYSATFISRLSISKDNSKSQVFFKMDSLQVDDTAIYYCARNEVWGQGTSVTVSS VL: not shown | – | – | – | – | – | – | – | – | – | 0.07 nM | – | – | – | – | 0.07 nM | 14.5 nM | 0.00053 s⁻¹ | 14.9 nM | 0.0025 s⁻¹ | 280000 M⁻¹ s⁻¹ | Kd [23]: 0.85 nM; koff [23]: 2.7e-05 s⁻¹; kon [23]: 39000 M⁻¹ s⁻¹; binding result [20]: no binding; EC50 [25]: 0.07 nM; Kd [26]: 4.88 nM; koff [26]: 0.00013 s⁻¹; kon [26]: 35000 M⁻¹ s⁻¹; kon [27]: 34000 M⁻¹ s⁻¹
ACI-8016-2610H7D3-AB1 (antibody, V domains shown) VH: QVQLQQSGVELARPGASVKLSCKASGFSFTSYGISWVKQKTGQGLEWIGQIYLRSSNTYYSEKFKDRATLTADKSSSTVYMELRSLTSEDSAVYFCARYYGSSSDYWGQGTTLTVSS VL: DIQMNQSPSSLSASLGDTITINCHASQNINVWLSWYQQKPGNIPKVLINQASNLQTDVPTRFSGSGSGTDFKLIISRLQSEDIATYYCQQGQSYPWTFGGGTKLEIK | 73% | 6% | 87.3% | 60.4 nM | 10.1 nM | 0.27 nM | 2% | 25.2 nM | 1% | 0.16 nM | 0% | 2% | 80% | 0% | 0.19 nM | 0.41 nM | 0.000339 s⁻¹ | 0.27 nM | 0.000201 s⁻¹ | 747000 M⁻¹ s⁻¹ | binding result [28]: no binding; normalized binding response [16]: 1%; kon [18]: 831000 M⁻¹ s⁻¹

More lines, main results first:

normalized binding response [2] | normalized binding response [3] | % IL-1β inhibition, mouse primary microglia, 420 nM mAb [4] | Mouse ASC polymerization assay, IC50 [5] | Human ASC polymerization assay, IC50 [6] | EC50 [7] | normalized binding response [8] | IL-1β release, human monocytic cell line, IC50 [9] | normalized binding response [10] | EC50 [11] | normalized binding response [12] | normalized binding response [13] | normalized binding response [14] | normalized binding response [15] | EC50 [17] | Kd [18] | koff [18] | Kd [19] | koff [19] | kon [19] | Binder | also measured
73% | 2% | 40% | 30.1 nM | 4.2 nM | 0.27 nM | 2% | 41.1 nM | 0% | 0.2 nM | 2% | 1% | 74% | 1% | 0.27 nM | 1.16 nM | 0.00069 s⁻¹ | 0.38 nM | 0.000264 s⁻¹ | 690000 M⁻¹ s⁻¹ | ACI-8016-22D3A6-AB1 (antibody, V domains shown, also called 936.22D3A6; ACI-8016-22D3A6-AB1_hmG2c) VH: QAQLQQSGTELARPGSSVKLSCKASGFTFTIYGINWVKQRTGQGLEWIGEIYPRSGNTYYDEKFKGKATLTADKSTSTAYMELRSLTSEDSAVYFCARSREWEGVFWGQGTLVTVSA VL: QIVLTQSPAIMSAFPGEKVTITCSATSSVSYMHWFQQKPGTSPKLWIYSTSNLASGVPARFSGSGSGTSHSLTINRMEAEDAATYYCQQRSRYPFTFGSGTKLEIK | binding result [1]: no binding; normalized binding response [16]: 3%; kon [18]: 598000 M⁻¹ s⁻¹
3% | 47% | – | – | 3.1 nM | – | 90% | 6.94 nM | 24% | 0.06 nM | 112% | 95% | 3% | 83% | 0.1 nM | – | – | < 0.01 nM | < 1e-05 s⁻¹ | 96000 M⁻¹ s⁻¹ | ACI-8016-401H9B7-AB1 (antibody, V domains shown) VH: QIQLVQSGPELKKPGETVKISCKASGYTFTKYGMNWVKQAPGKGLKRMGWINTYTGEPTYSDDFKGRFAFSLETSASTAYLQINNLKNDDTATYFCARLGYANSFDSWGQGTTLTVSS VL: DIQMTQSPASLSATVGETVTITCRASENIYTYLAWYQQKQGKSPQLLVHNANTLVEGVPSRFSGSGSGTQFSLKINSLEPEDFGNYYCQYHYGSPYTFGGGTKLEIK | binding result [24]: no binding; Kd [23]: < 0.01 nM; koff [23]: 2.3e-07 s⁻¹; kon [23]: 74000 M⁻¹ s⁻¹; normalized binding response [16]: 108%
